Patent WO2008140316A1

Biological target: human CD40 receptor on monocytes (human) (UniProt P25942)
Assay: cell-based or functional assay

UniProt P25942, sequence (P25942 21-277): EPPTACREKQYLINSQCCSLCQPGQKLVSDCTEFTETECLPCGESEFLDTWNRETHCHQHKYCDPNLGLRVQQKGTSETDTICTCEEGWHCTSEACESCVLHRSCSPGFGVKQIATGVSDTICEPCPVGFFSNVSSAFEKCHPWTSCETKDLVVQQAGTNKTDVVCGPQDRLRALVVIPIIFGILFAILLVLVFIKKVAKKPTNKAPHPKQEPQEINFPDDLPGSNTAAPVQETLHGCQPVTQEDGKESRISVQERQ

IL-1β (pg/mL), Clone 64+IFN-γ, MDS CD14+ cells (Table 3): 18 pg/mL | IL-1β (pg/mL), Clone 64+IFN-γ, donor CD14+ cells (Table 3): 13 pg/mL | IL-6 (pg/mL), Clone 64+IFN-γ, MDS CD14+ cells (Table 3): 1210 pg/mL | IL-6 (pg/mL), Clone 64+IFN-γ, donor CD14+ cells (Table 3): 1490 pg/mL | IL-10 (pg/mL), Clone 64+IFN-γ, MDS CD14+ cells (Table 3): 1650 pg/mL | IL-10 (pg/mL), Clone 64+IFN-γ, donor CD14+ cells (Table 3): 1170 pg/mL | TNF-α (pg/mL), Clone 64+IFN-γ, MDS CD14+ cells (Table 3): 293 pg/mL | TNF-α (pg/mL), Clone 64+IFN-γ, donor CD14+ cells (Table 3): 52 pg/mL | TNF-α production by CD14+ monocytes from MDS patients, clone 64 + IFN-γ, 24 h, ELISA: 449 pg/mL | TNF-α production by CD14+ monocytes from normal controls, clone 64 + IFN-γ, 24 h, ELISA: 67 pg/mL
Substance: clone 64 (agonist anti-human CD40 monoclonal antibody, PanGenetics, The Netherlands)
